Test results published in patent publication US20120316071A1 (published 2012).
Blank lines part the entries; values can stand above or below the binder they belong to.

Assays:
rHuman ErbB2/Fc Chimera = biological target: T1, rHuman ErbB2/Fc Chimera (human, UniProt P04626 23-652); experiment: ECL (MSD) multispot assay, antigen spotted; blank spot of this row 424
T1 construct: not shown: Fc of the bought R&D Systems chimera

[1] = biological target: T2, rHuman Notch-1/Fc Chimera (human, UniProt P46531 19-526); experiment: as above
T2 construct: R&D Systems Cat#3647-TK; not shown: Fc of the bought R&D Systems chimera

[2] = biological target: T3, rHuman Erythropoietin R/Fc Chimera (human, UniProt P19235 25-250); experiment: as above
T3 construct: also called EPO R; EPO R/Fc; not shown: Fc of the bought R&D Systems chimera
T3 sequence (looked up): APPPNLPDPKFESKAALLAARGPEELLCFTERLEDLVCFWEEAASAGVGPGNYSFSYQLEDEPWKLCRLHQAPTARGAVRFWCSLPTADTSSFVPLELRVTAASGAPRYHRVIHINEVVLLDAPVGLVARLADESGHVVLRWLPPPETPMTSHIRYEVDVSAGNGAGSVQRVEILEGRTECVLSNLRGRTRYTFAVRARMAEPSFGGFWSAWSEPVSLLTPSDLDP

rHuman EGF R/Fc Chimera = biological target: T4, rHuman EGF R/Fc Chimera (human, UniProt P00533 25-645); experiment: as above
T4 construct: not shown: Fc of the bought R&D Systems chimera

[3] = biological target: T5, rHuman P-Cadherin/Fc Chimera (human, UniProt P22223 108-654); experiment: as above
T5 construct: R&D Systems Cat#861-PC; not shown: Fc of the bought R&D Systems chimera

[4] = biological target: T6, Recombinant Human DLL4 (delta-like protein 4) (human, UniProt Q9NR61 27-524); experiment: as above
T6 construct: Bought recombinant protein (R&D Systems Cat#1506-D4/CF); also called rHuman DLL4

rHuman CD44/Fc Chimera = biological target: T7, rHuman CD44/Fc Chimera (human, UniProt P16070 21-220); experiment: as above
T7 construct: not shown: Fc of the bought R&D Systems chimera

[5] = biological target: T6, Recombinant Human DLL4 (delta-like …); experiment: ELISA, DLL4 coated on plate
[6] = biological target: T6, Recombinant Human DLL4 (delta-like …); experiment: ECL (MSD) multispot binding assay; value equals DLL4 signal over blank of Table 91
[7] = biological target: T8, Recombinant Human DLL4 (delta-like protein 4) (human, UniProt Q9NR61 27-524); experiment: SPR, Fab on recombinant human DLL4; column head x10^5 applied; (±6.24) at r15c3
T8 construct: Bought recombinant protein; also called rHuman DLL4; Delta-like 4

[8] = biological target: T8, Recombinant Human DLL4 (delta-like …); experiment: SPR, Fab on recombinant human DLL4; (±8.5) at r15c5
[9] = biological target: T8, Recombinant Human DLL4 (delta-like …); experiment: SPR, Fab on recombinant human DLL4; column head x10^-3 applied as printed, but KD x ka implies 0.0717 s^-1 unscaled; (±0.00351) at r15c4
[10] = biological target: T8, Recombinant Human DLL4 (delta-like …); experiment: SPR, Fab on recombinant human DLL4; (±200) printed at r9c5; ka and kd printed n/a
[11] = biological target: T9, rHuman P-Cadherin/Fc Chimera, CF (R&D Systems Cat#861-PC) (human, UniProt P22223 108-654); experiment: ECL multispot (MSD) binding assay, antigen spotted on plate, Fab 0.04 uM;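 further: purified Fab incubated 1 h at 20 °C on antigen spots, detected via TAG-labelled antibody, ECL read against each well's blank, with signal-to-blank of at least 4 scored as binder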
T9 construct: Bought recombinant protein; Fc part of the bought chimera not given

[12] = biological target: T10, rHuman CD44/Fc Chimera, CF (R&D Systems Cat#3660-CD) (human, UniProt P16070 21-220); experiment: as above
T10 construct: Bought recombinant protein; Fc part of the bought chimera not given

[13] = biological target: T11, Recombinant Human DLL4 (R&D Systems Cat#1506-D4/CF) (human, UniProt Q9NR61 27-524); experiment: as above
T11 construct: Bought recombinant protein; also called delta-like protein 4; rHuman DLL4

[14] = biological target: T12, rHuman EGF R/Fc Chimera, CF (R&D Systems Cat#344-ER) (human, UniProt P00533 25-645); experiment: as above
T12 construct: Bought recombinant protein; also called epidermal growth factor receptor; Fc part of the bought chimera not given

[15] = biological target: T13, rHuman HGF R/c-MET/Fc Chimera, CF (R&D Systems Cat#358-MT/CF) (human, UniProt P08581 25-932); experiment: as above
T13 construct: Bought recombinant protein; also called HGF R/Fc; hepatocyte growth factor receptor; Fc part of the bought chimera not given
T13 sequence (P08581 25-932, change not shown): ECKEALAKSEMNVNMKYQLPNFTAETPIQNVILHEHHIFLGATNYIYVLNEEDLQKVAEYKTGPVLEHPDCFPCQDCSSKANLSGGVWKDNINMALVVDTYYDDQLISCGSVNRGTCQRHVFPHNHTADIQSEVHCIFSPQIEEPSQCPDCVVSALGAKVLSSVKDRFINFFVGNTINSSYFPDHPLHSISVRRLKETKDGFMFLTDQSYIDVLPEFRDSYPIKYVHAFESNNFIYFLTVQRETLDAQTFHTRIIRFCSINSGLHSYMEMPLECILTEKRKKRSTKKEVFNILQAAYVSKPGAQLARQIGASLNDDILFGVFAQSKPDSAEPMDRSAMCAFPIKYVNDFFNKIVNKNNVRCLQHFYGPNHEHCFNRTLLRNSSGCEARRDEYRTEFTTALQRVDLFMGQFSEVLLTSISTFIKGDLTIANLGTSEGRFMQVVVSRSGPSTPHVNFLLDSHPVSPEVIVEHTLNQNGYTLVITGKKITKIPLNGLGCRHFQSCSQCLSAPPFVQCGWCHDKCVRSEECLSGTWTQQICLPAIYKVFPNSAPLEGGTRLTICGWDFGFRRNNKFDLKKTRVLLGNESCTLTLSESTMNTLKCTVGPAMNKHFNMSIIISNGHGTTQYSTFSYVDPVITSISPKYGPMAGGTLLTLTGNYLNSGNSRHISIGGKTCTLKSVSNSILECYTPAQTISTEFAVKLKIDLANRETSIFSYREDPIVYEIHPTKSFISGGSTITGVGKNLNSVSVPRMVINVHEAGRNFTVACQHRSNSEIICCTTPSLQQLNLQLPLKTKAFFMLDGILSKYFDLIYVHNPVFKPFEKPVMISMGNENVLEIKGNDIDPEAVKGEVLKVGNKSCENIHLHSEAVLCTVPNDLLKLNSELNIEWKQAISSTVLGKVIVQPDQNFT

[16] = biological target: T14, rHuman ErbB2/Fc Chimera, CF (R&D Systems Cat#1129-ER) (human, UniProt P04626 23-652); experiment: as above
T14 construct: Bought recombinant protein; also called human epidermal growth factor 2 receptor; Fc part of the bought chimera not given

[17] = biological target: T15, rHuman Notch-1/Fc Chimera, CF (R&D Systems Cat#3647-TK) (human, UniProt P46531 19-526); experiment: as above
T15 construct: Bought recombinant protein; Fc part of the bought chimera not given

[18] = biological target: T16, rHuman IGF-1 sR, CF (R&D Systems Cat#391-GR) (human, UniProt P08069 31-932); experiment: as above
T16 construct: Bought recombinant soluble receptor; also called insulin-like growth factor-1 soluble receptor

[19] = biological target: T17, rHuman Erythropoietin R/Fc Chimera, CF (R&D Systems Cat#963-ER) (human, UniProt P19235 25-250); experiment: as above
T17 construct: Bought recombinant protein; also called EPO R; EPO R/Fc; Fc part of the bought chimera not given
T17 sequence (looked up): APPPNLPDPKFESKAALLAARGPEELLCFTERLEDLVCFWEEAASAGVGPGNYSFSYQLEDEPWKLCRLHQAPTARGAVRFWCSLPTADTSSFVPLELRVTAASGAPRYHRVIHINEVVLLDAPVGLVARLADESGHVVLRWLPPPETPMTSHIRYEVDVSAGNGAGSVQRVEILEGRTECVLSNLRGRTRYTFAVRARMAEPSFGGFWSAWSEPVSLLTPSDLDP

[20] = biological target: T8, Recombinant Human DLL4 (delta-like …); experiment: SPR, Fab on recombinant human DLL4; (±7) at r11c5
[21] = biological target: T8, Recombinant Human DLL4 (delta-like …); experiment: SPR, Fab on recombinant human DLL4; column head x10^5 applied; (±0.092) at r11c3
[22] = biological target: T8, Recombinant Human DLL4 (delta-like …); experiment: SPR, Fab on recombinant human DLL4; column head x10^-3 applied as printed, but KD x ka implies 0.023 s^-1 unscaled; (±0.004) at r11c4
[23] = biological target: T18, Recombinant Human DLL4 (delta-like protein 4) (human, UniProt Q9NR61 27-524); experiment: ELISA, Fab on plate-coated recombinant human DLL4
T18 construct: also called rHuman DLL4; Delta-like 4

[24] = biological target: T18, Recombinant Human DLL4 (delta-like …); experiment: ECL (MSD) binding assay, Fab on immobilised recombinant human DLL4
[25] = biological target: T8, Recombinant Human DLL4 (delta-like …); experiment: SPR, Fab on recombinant human DLL4; column head x10^5 applied; (±0.6) at r13c3
[26] = biological target: T8, Recombinant Human DLL4 (delta-like …); experiment: SPR, Fab on recombinant human DLL4; column head x10^-3 applied as printed, but KD x ka implies 0.0845 s^-1 unscaled; (±0.0050) at r13c4
[27] = biological target: T8, Recombinant Human DLL4 (delta-like …); experiment: SPR, Fab on recombinant human DLL4; (±6) at r13c5

ECL signal (rHuman ErbB2/Fc Chimera): 1100
ECL signal [1]: 543
ECL signal [2]: 554
ECL signal (rHuman EGF R/Fc Chimera): 852
ECL signal [3]: 319
ECL signal [4]: 36400
ECL signal (rHuman CD44/Fc Chimera): 579
ELISA (Signal-Noise) [5]: 0
ECL signal-to-blank ratio [6]: 85.9
B1: Fab VH5-51_IGHD5-18*01>3_IGHJ4*01 G100K/G104T & V3-4_IGLJ1*01 (Fab, V domains shown)
VH: EVQLVQSGAEVKKPGESLKISCKGSGYSFTSYWIGWVRQMPGKGLEWMGIIYPGDSDTRYSPSFQGQVTISADKSISTAYLQWSSLKASDTAMYYCARRKYSYTYDYFDYWGQGTLVTVSS
VL: QTVVTQEPSFSVSPGGTVTLTCGLSSGSVSTSYYPSWYQQTPGQAPRTLIYSTNTRSSGVPDRFSGSILGNKAALTITGAQADDESDYYCVLYMGSGISYVFGTGTKVTVL
notes: Fab made in E. coli (heavy chain vector with CH1, His6 and Flag tags; lambda CL vector); also called KT; H:KT

kon [7]: 2.09e+06 M⁻¹ s⁻¹
Kd [8]: 36.2 nM
koff [9]: 7.17e-05 s⁻¹
B2: Fab VH5-51_IGHD5-18*01>3_IGHJ4*01 G100K/G104T G24T/S28R/G35V & V3-4_IGLJ1*01 (Fab, V domains shown)
VH: EVQLVQSGAEVKKPGESLKISCKTSGYRFTSYWIVWVRQMPGKGLEWMGIIYPGDSDTRYSPSFQGQVTISADKSISTAYLQWSSLKASDTAMYYCARRKYSYTYDYFDYWGQGTLVTVSS
VL: QTVVTQEPSFSVSPGGTVTLTCGLSSGSVSTSYYPSWYQQTPGQAPRTLIYSTNTRSSGVPDRFSGSILGNKAALTITGAQADDESDYYCVLYMGSGISYVFGTGTKVTVL
notes: Fab made in E. coli; VH was cloned in Plasmid A (CH1, His6 and Flag tags) and VL in Plasmid E (lambda CL); also called KT TRV; H:KT TRV & L:wt

Kd [10]: 4.8 µM
B3: Fab VH5-51_IGHD5-18*01>3_IGHJ4*01 & V3-4_IGLJ1*01 (Fab, V domains shown)
VH: EVQLVQSGAEVKKPGESLKISCKGSGYSFTSYWIGWVRQMPGKGLEWMGIIYPGDSDTRYSPSFQGQVTISADKSISTAYLQWSSLKASDTAMYYCARRGYSYGYDYFDYWGQGTLVTVSS
VL: QTVVTQEPSFSVSPGGTVTLTCGLSSGSVSTSYYPSWYQQTPGQAPRTLIYSTNTRSSGVPDRFSGSILGNKAALTITGAQADDESDYYCVLYMGSGISYVFGTGTKVTVL
notes: Germline Fab made in E. coli; also called parental; wildtype

ECL signal [11]: 359
ECL signal [12]: 708
ECL signal [13]: 15100
ECL signal [14]: 1050
ECL signal [15]: 1230
ECL signal [16]: 1380
ECL signal [17]: 700
ECL signal [18]: 1100
ECL signal [19]: 584
B4: Fab VH5-51_IGHD5-18*01>3_IGHJ4*01 G100K/G104T (H:KT) & V3-4_IGLJ1*01 I98A (Fab, V domains shown)
VH: EVQLVQSGAEVKKPGESLKISCKGSGYSFTSYWIGWVRQMPGKGLEWMGIIYPGDSDTRYSPSFQGQVTISADKSISTAYLQWSSLKASDTAMYYCARRKYSYTYDYFDYWGQGTLVTVSS
VL: QTVVTQEPSFSVSPGGTVTLTCGLSSGSVSTSYYPSWYQQTPGQAPRTLIYSTNTRSSGVPDRFSGSILGNKAALTITGAQADDESDYYCVLYMGSGASYVFGTGTKVTVL
notes: Fab; Expressed from Plasmid A (CH1, His6 and Flag tags) and Plasmid E (lambda CL); also called KT & I98A

Kd [20]: 355 nM
kon [21]: 64500 M⁻¹ s⁻¹
koff [22]: 2.3e-05 s⁻¹
B5: Fab VH5-51_IGHD5-18*01>3_IGHJ4*01 G100K/G104T & V3-4_IGLJ1*01 (Fab, V domains shown)
VH: EVQLVQSGAEVKKPGESLKISCKGSGYSFTSYWIGWVRQMPGKGLEWMGIIYPGDSDTRYSPSFQGQVTISADKSISTAYLQWSSLKASDTAMYYCARRKYSYTYDYFDYWGQGTLVTVSS
VL: QTVVTQEPSFSVSPGGTVTLTCGLSSGSVSTSYYPSWYQQTPGQAPRTLIYSTNTRSSGVPDRFSGSILGNKAALTITGAQADDESDYYCVLYMGSGISYVFGTGTKVTVL
notes: Fab made in E. coli; VH was cloned in Plasmid A (CH1, His6 and Flag tags) and VL in Plasmid E (lambda CL); also called KT; H:KT & L:wt

ELISA signal [23]: 0.11
ECL signal [24]: 68200
B6: Fab VH5-51_IGHD5-18*01>3_IGHJ4*01 G100K/G104T (H:KT) & V3-4_IGLJ1*01 G23R (Fab, V domains shown)
VH: EVQLVQSGAEVKKPGESLKISCKGSGYSFTSYWIGWVRQMPGKGLEWMGIIYPGDSDTRYSPSFQGQVTISADKSISTAYLQWSSLKASDTAMYYCARRKYSYTYDYFDYWGQGTLVTVSS
VL: QTVVTQEPSFSVSPGGTVTLTCRLSSGSVSTSYYPSWYQQTPGQAPRTLIYSTNTRSSGVPDRFSGSILGNKAALTITGAQADDESDYYCVLYMGSGISYVFGTGTKVTVL
notes: Fab (CH1 with His6/Flag tags from Plasmid A, lambda CL from Plasmid E); also called G100K/G104T & G23R

kon [25]: 740000 M⁻¹ s⁻¹
koff [26]: 8.45e-05 s⁻¹
Kd [27]: 114 nM
B7: Fab VH5-51_IGHD5-18*01>3_IGHJ4*01 G100K/G104T S28R & V3-4_IGLJ1*01 (Fab, V domains shown)
VH: EVQLVQSGAEVKKPGESLKISCKGSGYRFTSYWIGWVRQMPGKGLEWMGIIYPGDSDTRYSPSFQGQVTISADKSISTAYLQWSSLKASDTAMYYCARRKYSYTYDYFDYWGQGTLVTVSS
VL: QTVVTQEPSFSVSPGGTVTLTCGLSSGSVSTSYYPSWYQQTPGQAPRTLIYSTNTRSSGVPDRFSGSILGNKAALTITGAQADDESDYYCVLYMGSGISYVFGTGTKVTVL
notes: Fab made in E. coli; VH was cloned in Plasmid A (CH1, His6 and Flag tags) and VL in Plasmid E (lambda CL); also called KT S28R; H:KT S28R & L:wt
